Experimental data reported in publication PMC5962072, “Structural insights on the efficient catalysis of hydroperoxide reduction by Ohr: Crystallographic and molecular dynamics approaches” (PLoS ONE, 2018).

Biological target: Cys61 (UniProt position 61, AGYSACFIGAL)
Assay: chemical modification
Settings: room temperature; Reduced (dithiol) protein after DTT treatment and desalting; no ligand.

Organic hydroperoxide resistance protein (Ohr, XfOhr) (Xylella fastidiosa)
pKa: 5.92 ± 0.11
